Here are results for 8 molecules from patent publication EP4671273A1 (Anaveon AG, dated 2025).

The target in test [1] is T1, human IL-21 receptor (IL-21R) on cells (human, UniProt Q9HBE5 20-538; P31785 23-369). As to the kind of experiment: cell-based or functional assay.
Test [2] deals with T1, human IL-21 receptor (IL-21R) on cells. The experiment in a line: cell-based or functional assay. This is another data set of the same source.

Where two headings read alike, the source gives them in different places.

T1 sequence (Q9HBE5 20-538, chain 1 of 2): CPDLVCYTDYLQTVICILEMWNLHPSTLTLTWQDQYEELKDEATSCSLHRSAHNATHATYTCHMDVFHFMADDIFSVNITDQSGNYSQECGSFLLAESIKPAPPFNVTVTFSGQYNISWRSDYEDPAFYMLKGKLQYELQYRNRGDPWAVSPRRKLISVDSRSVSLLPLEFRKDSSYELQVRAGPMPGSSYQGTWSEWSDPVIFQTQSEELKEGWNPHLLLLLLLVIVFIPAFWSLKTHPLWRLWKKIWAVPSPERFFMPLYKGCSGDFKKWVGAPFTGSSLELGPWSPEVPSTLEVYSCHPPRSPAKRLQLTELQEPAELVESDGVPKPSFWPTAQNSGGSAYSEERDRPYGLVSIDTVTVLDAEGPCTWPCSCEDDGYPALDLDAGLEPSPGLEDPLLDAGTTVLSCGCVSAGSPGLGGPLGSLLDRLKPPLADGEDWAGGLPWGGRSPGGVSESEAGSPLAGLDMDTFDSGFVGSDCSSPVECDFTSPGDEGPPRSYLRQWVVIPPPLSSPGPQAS
T1 sequence (P31785 23-369, chain 2 of 2): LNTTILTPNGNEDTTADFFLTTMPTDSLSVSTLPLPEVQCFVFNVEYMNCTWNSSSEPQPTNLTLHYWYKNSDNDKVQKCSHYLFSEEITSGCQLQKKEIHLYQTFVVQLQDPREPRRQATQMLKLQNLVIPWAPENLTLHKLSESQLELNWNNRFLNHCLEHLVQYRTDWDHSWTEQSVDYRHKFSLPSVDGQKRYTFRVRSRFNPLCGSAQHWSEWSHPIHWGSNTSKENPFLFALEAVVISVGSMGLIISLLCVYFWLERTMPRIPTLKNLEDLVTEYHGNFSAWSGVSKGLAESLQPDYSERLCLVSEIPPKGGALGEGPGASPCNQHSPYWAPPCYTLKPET

B1: IFM656 (bispecific antibody, human IgG1, kappa, lambda, L234A L235A)
heavy 1: EVQLLESGGGLVQPGGSLRLSCAASGFTFSINAMTWVRQAPGKGLEWVSTISGSGFSTYYADSLKGRFTISRDNSKNTLYLQMNSLRAEDTAVYYCAKEVYGDYWGQGTLVTVSSASTKGPSVFPLAPSSKSTSGGTAALGCLVKDYFPEPVTVSWNSGALTSGVHTFPAVLQSSGLYSLSSVVTVPSSSLGTQTYICNVNHKPSNTKVDKRVEPKSCDKTHTCPPCPAPEAAGGPSVFLFPPKPKDTLMISRTPEVTCVVVDVSHEDPEVKFNWYVDGVEVHNAKTKPREEQYNSTYRVVSVLTVLHQDWLNGKEYKCKVSNKALAAPIEKTISKAKGQPREPQVCTLPPSREEMTKNQVSLSCAVKGFYPSDIAVEWESNGQPENNYKTTPPVLDSDGSFFLVSKLTVDKSRWQQGNVFSCSVMHEALHNHYTQKSLSLSPGK
light 1: not shown
heavy 2: not shown
light 2: DIQLTQSPSSVSASVGDRVTITCRASQGISSWLAWYQHKPGKAPKLLIYVASSLQSGVPSRFSGSGSGTDFTLTISSLQPEDFATYYCQQASSFPLTFGGGTKVEIKRTVAAPSVFIFPPSDEQLKSGTASVVCLLNNFYPREAKVQWKVDNALQSGNSQESVTEQDSKDSTYSLSSTLTLSKADYEKHKVYACEVTHQGLSSPVTKSFNRGEC
As to B1, in test [1], the “EC50B, pSTAT3+ Jurkat PD-1 cells, PD-1 blocked” value (“EC50B, pSTAT3+ Jurkat PD-1 cells” below) is 15.9 nM and the “EC50NB, pSTAT3+ Jurkat PD-1 cells” value turned out to be 0.21 nM.

B2: DHJ369 (bispecific antibody, human IgG1, kappa, lambda, L234A L235A)
heavy 1: EVQLLESGGGLVQPGGSLRLSCAASGFTFSINAMTWVRQAPGKGLEWVSTISGSGFSTYYADSLKGRFTISRDNSKNTLYLQMNSLRAEDTAVYYCAKEVYGDYWGQGTLVTVSSASTKGPSVFPLAPSSKSTSGGTAALGCLVKDYFPEPVTVSWNSGALTSGVHTFPAVLQSSGLYSLSSVVTVPSSSLGTQTYICNVNHKPSNTKVDKRVEPKSCDKTHTCPPCPAPEAAGGPSVFLFPPKPKDTLMISRTPEVTCVVVDVSHEDPEVKFNWYVDGVEVHNAKTKPREEQYNSTYRVVSVLTVLHQDWLNGKEYKCKVSNKALAAPIEKTISKAKGQPREPQVCTLPPSREEMTKNQVSLSCAVKGFYPSDIAVEWESNGQPENNYKTTPPVLDSDGSFFLVSKLTVDKSRWQQGNVFSCSVMHEALHNHYTQKSLSLSPGK
light 1: not shown
heavy 2: not shown
light 2: DIQMTQSPSSVSASVGDRVTITCRASQGISSWLAWYQHKPGKAPKLLIYVASSLQSGVPSRFSGSGSGTDFTLTISSLQPEDFATYYCQQANSFPLTFGGGTKVEIKRTVAAPSVFIFPPSDEQLKSGTASVVCLLNNFYPREAKVQWKVDNALQSGNSQESVTEQDSKDSTYSLSSTLTLSKADYEKHKVYACEVTHQGLSSPVTKSFNRGEC
As to B2, in test [1], the “EC50B, pSTAT3+ Jurkat PD-1 cells” value was 2.56 nM and the “EC50NB, pSTAT3+ Jurkat PD-1 cells” value amounted to 0.24 nM.

B3: OUQ507 (bispecific antibody, human IgG1, kappa, lambda, L234A L235A)
heavy 1: EVQLLESGGGLVQPGGSLRLSCAASGFTFSINAMTWVRQAPGKGLEWVSTISGSGFSTYYADSLKGRFTISRDNSKNTLYLQMNSLRAEDTAVYYCAKEVYGDYWGQGTLVTVSSASTKGPSVFPLAPSSKSTSGGTAALGCLVKDYFPEPVTVSWNSGALTSGVHTFPAVLQSSGLYSLSSVVTVPSSSLGTQTYICNVNHKPSNTKVDKRVEPKSCDKTHTCPPCPAPEAAGGPSVFLFPPKPKDTLMISRTPEVTCVVVDVSHEDPEVKFNWYVDGVEVHNAKTKPREEQYNSTYRVVSVLTVLHQDWLNGKEYKCKVSNKALAAPIEKTISKAKGQPREPQVCTLPPSREEMTKNQVSLSCAVKGFYPSDIAVEWESNGQPENNYKTTPPVLDSDGSFFLVSKLTVDKSRWQQGNVFSCSVMHEALHNHYTQKSLSLSPGK
light 1: not shown
heavy 2: not shown
light 2: DIQMTQSPSSVSASVGDRVTITCRASQGISSWLAWYQHKPGKAPKLLIYVASSLQSGVPSRFSGSGSGTDFTLTISSLQPEDFATYYCQQANSAPLTFGGGTKVEIKRTVAAPSVFIFPPSDEQLKSGTASVVCLLNNFYPREAKVQWKVDNALQSGNSQESVTEQDSKDSTYSLSSTLTLSKADYEKHKVYACEVTHQGLSSPVTKSFNRGEC
In the case of B3, in test [1], the “EC50B, pSTAT3+ Jurkat PD-1 cells” value turned out to be 0.42 nM and the “EC50NB, pSTAT3+ Jurkat PD-1 cells” value was 24 pM.

B4: EDV817 (bispecific antibody, human IgG1, kappa, lambda, L234A L235A)
heavy 1: EVQLLESGGGLVQPGGSLRLSCAASGFTFSINAMTWVRQAPGKGLEWVSTISGSGFSTYYADSLKGRFTISRDNSKNTLYLQMNSLRAEDTAVYYCAKEVYGDYWGQGTLVTVSSASTKGPSVFPLAPSSKSTSGGTAALGCLVKDYFPEPVTVSWNSGALTSGVHTFPAVLQSSGLYSLSSVVTVPSSSLGTQTYICNVNHKPSNTKVDKRVEPKSCDKTHTCPPCPAPEAAGGPSVFLFPPKPKDTLMISRTPEVTCVVVDVSHEDPEVKFNWYVDGVEVHNAKTKPREEQYNSTYRVVSVLTVLHQDWLNGKEYKCKVSNKALAAPIEKTISKAKGQPREPQVCTLPPSREEMTKNQVSLSCAVKGFYPSDIAVEWESNGQPENNYKTTPPVLDSDGSFFLVSKLTVDKSRWQQGNVFSCSVMHEALHNHYTQKSLSLSPGK
light 1: not shown
heavy 2: QVQLQESGPGLVKPSETLSLTCTVSGGSISSDYWGWIRQPPGKGLEWIGYISYRGSTNYNPSLKSRVTISVDTSRNQFSLKLSSVTAADTAVYYCARSAGVTDFDAWGQGTLVTVSSASTKGPSVFPLAPSSKSTSGGTAALGCLVKDYFPEPVTVSWNSGALTSGVHTFPAVLQSSGLYSLSSVVTVPSSSLGTQTYICNVNHKPSNTKVDKRVEPKSCDKTHTCPPCPAPEAAGGPSVFLFPPKPKDTLMISRTPEVTCVVVDVSHEDPEVKFNWYVDGVEVHNAKTKPREEQYNSTYRVVSVLTVLHQDWLNGKEYKCKVSNKALAAPIEKTISKAKGQPREPQVYTLPPCREEMTKNQVSLWCLVKGFYPSDIAVEWESNGQPENNYKTTPPVLDSDGSFFLYSKLTVDKSRWQQGNVFSCSVMHEALHNHYTQKSLSLSPGK
light 2: not shown
Consider B4, for which, in test [2], the “EC50B, pSTAT3+ Jurkat PD-1 cells” value came out at 0.13 nM and the “EC50NB, pSTAT3+ Jurkat PD-1 cells” value was found to be 96.9 pM.

B5: ZBA121 (bispecific antibody, human IgG1, kappa, lambda, L234A L235A)
heavy 1: EVQLLESGGGLVQPGGSLRLSCAASGFTFSINAMTWVRQAPGKGLEWVSTISGSGFSTYYADSLKGRFTISRDNSKNTLYLQMNSLRAEDTAVYYCAKEVYGDYWGQGTLVTVSSASTKGPSVFPLAPSSKSTSGGTAALGCLVKDYFPEPVTVSWNSGALTSGVHTFPAVLQSSGLYSLSSVVTVPSSSLGTQTYICNVNHKPSNTKVDKRVEPKSCDKTHTCPPCPAPEAAGGPSVFLFPPKPKDTLMISRTPEVTCVVVDVSHEDPEVKFNWYVDGVEVHNAKTKPREEQYNSTYRVVSVLTVLHQDWLNGKEYKCKVSNKALAAPIEKTISKAKGQPREPQVCTLPPSREEMTKNQVSLSCAVKGFYPSDIAVEWESNGQPENNYKTTPPVLDSDGSFFLVSKLTVDKSRWQQGNVFSCSVMHEALHNHYTQKSLSLSPGK
light 1: not shown
heavy 2: not shown
light 2: DIQMTQSPSSVSASVGDRVTITCRASQGISSWLAWYQHKPGKAPKLLIYVASSLQSGVPSRFSGSGSGTDFTLTISSLQPEDFATYYCQQANSFPLTFGGGTKVEIKRTVAAPSVFIFPPSDEQLKSGTASVVCLLNNFYPREAKVQWKVDNALQSGNSQESVTEQDSKDSTYSLSSTLTLSKADYEKHKVYACEVTHQGLSSPVTKSFNRGEC
On to B5, for which, in test [1], the “EC50B, pSTAT3+ Jurkat PD-1 cells” value worked out at 103 nM and the “EC50NB, pSTAT3+ Jurkat PD-1 cells” value came to 0.86 nM.

B6: CMQ332 (bispecific antibody, human IgG1, kappa, lambda, L234A L235A)
heavy 1: EVQLLESGGGLVQPGGSLRLSCAASGFTFSINAMTWVRQAPGKGLEWVSTISGSGFSTYYADSLKGRFTISRDNSKNTLYLQMNSLRAEDTAVYYCAKEVYGDYWGQGTLVTVSSASTKGPSVFPLAPSSKSTSGGTAALGCLVKDYFPEPVTVSWNSGALTSGVHTFPAVLQSSGLYSLSSVVTVPSSSLGTQTYICNVNHKPSNTKVDKRVEPKSCDKTHTCPPCPAPEAAGGPSVFLFPPKPKDTLMISRTPEVTCVVVDVSHEDPEVKFNWYVDGVEVHNAKTKPREEQYNSTYRVVSVLTVLHQDWLNGKEYKCKVSNKALAAPIEKTISKAKGQPREPQVCTLPPSREEMTKNQVSLSCAVKGFYPSDIAVEWESNGQPENNYKTTPPVLDSDGSFFLVSKLTVDKSRWQQGNVFSCSVMHEALHNHYTQKSLSLSPGK
light 1: not shown
heavy 2: not shown
light 2: DIQMTQSPSSVSASVGDRVTITCRASQGISSWLAWYQHKPGKAPKLLIYVASSLQSGVPSRFSGSGSGTDFTLTISSLQPEDFATYYCQQANSAPLTFGGGTKVEIKRTVAAPSVFIFPPSDEQLKSGTASVVCLLNNFYPREAKVQWKVDNALQSGNSQESVTEQDSKDSTYSLSSTLTLSKADYEKHKVYACEVTHQGLSSPVTKSFNRGEC
Regarding B6, in test [1], the “EC50B, pSTAT3+ Jurkat PD-1 cells” value stood at 34 pM and the “EC50NB, pSTAT3+ Jurkat PD-1 cells” value is 12 pM.

B7: JKJ112 (bispecific antibody, human IgG1, kappa, lambda, L234A L235A)
heavy 1: EVQLLESGGGLVQPGGSLRLSCAASGFTFSINAMTWVRQAPGKGLEWVSTISGSGFSTYYADSLKGRFTISRDNSKNTLYLQMNSLRAEDTAVYYCAKEVYGDYWGQGTLVTVSSASTKGPSVFPLAPSSKSTSGGTAALGCLVKDYFPEPVTVSWNSGALTSGVHTFPAVLQSSGLYSLSSVVTVPSSSLGTQTYICNVNHKPSNTKVDKRVEPKSCDKTHTCPPCPAPEAAGGPSVFLFPPKPKDTLMISRTPEVTCVVVDVSHEDPEVKFNWYVDGVEVHNAKTKPREEQYNSTYRVVSVLTVLHQDWLNGKEYKCKVSNKALAAPIEKTISKAKGQPREPQVCTLPPSREEMTKNQVSLSCAVKGFYPSDIAVEWESNGQPENNYKTTPPVLDSDGSFFLVSKLTVDKSRWQQGNVFSCSVMHEALHNHYTQKSLSLSPGK
light 1: not shown
heavy 2: not shown
light 2: DIQMTQSPSSVSASVGDRVTITCRASQGISSWLAWYQHKPGKAPKLLIYVASSLQSGVPSRFSGSGSGTDFTLTISSLQPEDFATYYCQQANSFPLTFGGGTKVEIKRTVAAPSVFIFPPSDEQLKSGTASVVCLLNNFYPREAKVQWKVDNALQSGNSQESVTEQDSKDSTYSLSSTLTLSKADYEKHKVYACEVTHQGLSSPVTKSFNRGEC
Consider B7, for which, in test [1], the “EC50B, pSTAT3+ Jurkat PD-1 cells” value worked out at 17.2 nM and the “EC50NB, pSTAT3+ Jurkat PD-1 cells” value came to 0.52 nM.

B8: SUR250 (bispecific antibody, human IgG1, kappa, lambda, L234A L235A)
heavy 1: EVQLLESGGGLVQPGGSLRLSCAASGFTFSINAMTWVRQAPGKGLEWVSTISGSGFSTYYADSLKGRFTISRDNSKNTLYLQMNSLRAEDTAVYYCAKEVYGDYWGQGTLVTVSSASTKGPSVFPLAPSSKSTSGGTAALGCLVKDYFPEPVTVSWNSGALTSGVHTFPAVLQSSGLYSLSSVVTVPSSSLGTQTYICNVNHKPSNTKVDKRVEPKSCDKTHTCPPCPAPEAAGGPSVFLFPPKPKDTLMISRTPEVTCVVVDVSHEDPEVKFNWYVDGVEVHNAKTKPREEQYNSTYRVVSVLTVLHQDWLNGKEYKCKVSNKALAAPIEKTISKAKGQPREPQVCTLPPSREEMTKNQVSLSCAVKGFYPSDIAVEWESNGQPENNYKTTPPVLDSDGSFFLVSKLTVDKSRWQQGNVFSCSVMHEALHNHYTQKSLSLSPGK
light 1: not shown
heavy 2: not shown
light 2: DIQLTQSPSSVSASVGDRVTITCRASQGISSWLAWYQHKPGKAPKLLIYVASSLQSGVPSRFSGSGSGTDFTLTISSLQPEDFATYYCQQASSFPLTFGGGTKVEIKRTVAAPSVFIFPPSDEQLKSGTASVVCLLNNFYPREAKVQWKVDNALQSGNSQESVTEQDSKDSTYSLSSTLTLSKADYEKHKVYACEVTHQGLSSPVTKSFNRGEC
With B8, in test [1], the “EC50B, pSTAT3+ Jurkat PD-1 cells” value was 5.36 nM and the “EC50NB, pSTAT3+ Jurkat PD-1 cells” value amounted to 80 pM.
